From PMC5289745 (Biochemistry, 2015)

B1: PcrG-GB1-His6 (natural protein)
chain: MGDMNEYTEDTLRATVQAAELAIRDSEERGRLLAEMWQGLGLAADAGELLFQAPERELARAAEEELLAELRRMRSSQPTQGEQGTRPRRPTPMRGLLIGSENLYFQ
B2: PcrG^9–76-GB1-His6 (domain or fragment)
chain: MEDTLRATVQAAELAIRDSEERGRLLAEMWQGLGLAADAGELLFQAPERELARAAEEELLAELRRMRSSGSENLYFQ

Molecular target: PcrV (residues 25–294) (P. aeruginosa, UniProt G3XD49 25-294)
Assay: SPR

Binder	Kd [nM]
B1	26
B2	24
